Measurements as given in patent US20180155451A1 (published 2018).
Numbering of substitutions follows the chain as printed. Numbers in names are those of the source.

T1: FcgRIIb extracellular domain with C-terminal His tag (human, UniProt P31994 43-217)
T1 construct: extracellular domain; also called FcγRIIb; not shown: His tag attached to the C terminus
T1 sequence (looked up): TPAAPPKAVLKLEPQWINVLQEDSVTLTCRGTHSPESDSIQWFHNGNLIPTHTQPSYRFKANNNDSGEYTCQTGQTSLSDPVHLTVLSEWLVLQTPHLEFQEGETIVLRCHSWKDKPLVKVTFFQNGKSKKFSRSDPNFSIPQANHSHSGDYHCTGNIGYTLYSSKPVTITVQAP

T2: FcgRIIa R extracellular domain with C-terminal His tag (human, UniProt P12318 34-217)
T2 construct: extracellular domain; also called FcγRIIa R; FcγRIIa type R; not shown: His tag attached to the C terminus
T2 sequence (looked up): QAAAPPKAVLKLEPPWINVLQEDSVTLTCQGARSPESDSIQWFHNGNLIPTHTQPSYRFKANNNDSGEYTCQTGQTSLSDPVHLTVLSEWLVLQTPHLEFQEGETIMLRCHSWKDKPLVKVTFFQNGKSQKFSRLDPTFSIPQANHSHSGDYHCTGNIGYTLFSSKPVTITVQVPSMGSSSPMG

T3: FcgRIIa H extracellular domain with C-terminal His tag (human, UniProt P12318 34-217)
T3 construct: extracellular domain; also called FcγRIIa H; FcγRIIa type H; not shown: His tag attached to the C terminus
T3 sequence (looked up): T2 sequence (looked up) with R134H

B1: H240-Kn061/H240-Hl071/L73-k0 variant with F241L introduced into H240-Hl071 (antibody, human IgG1, kappa)
heavy 1: QDQLVQSGAEVKKPGASVKVSCKASGFNIKDTYIQWVRQAPGQGLEWMGRIDPLRKQTKYREKFEGRVTITADTSTNTAYMELSSLRSEDTAVYYCVRSGREFDYWGQGTLVTVSSASTKGPSVFPLAPSSKSTSGGTAALGCLVKDYFPEPVTVSWNSGALTSGVHTFPAVLQSSGLYSLSSVVTVPSSSLGTQTYICNVNHKPSNTKVDKKVEPKSCDKTHTCPPCPAPEYYWGPSVFLFPPKPKDTLMISRTPEVTCVVVDVSDEDPEVKFNWYVDGVEVHNAKTKPREEQYNATYRVVSVLTVLHQDWLNGKEYKCKVSNKALPAPIEKTISKAKGQPREPQVCTLPPSRDELTKNQVSLWCLVKGFYPSDIAVEWESNGQPENNYKTTPPVLDSDGSFFLYSKLTVDKSRWQQGNVFSCSVMHEALHNHYTQKSLSLSP
heavy 2: QDQLVQSGAEVKKPGASVKVSCKASGFNIKDTYIQWVRQAPGQGLEWMGRIDPLRKQTKYREKFEGRVTITADTSTNTAYMELSSLRSEDTAVYYCVRSGREFDYWGQGTLVTVSSASTKGPSVFPLAPSSKSTSGGTAALGCLVKDYFPEPVTVSWNSGALTSGVHTFPAVLQSSGLYSLSSVVTVPSSSLGTQTYICNVNHKPSNTKVDKKVEPKSCDKTHTCPPCPAPELLGGPSVLLFPPKPKDTLMISRTPEVTCVVVDVSHEDPEVKFNWYVDGVEVHNAKTKPREEQYNSTYRVVSVLTVLHQDWLNGKEYKCKVSNDALPMPIEETISKAKGQPREPQVYTLPPSRCELTKNQVSLSCAVKGFYPSDIAVEWESNGQPENNYKTTPPVLDSDGSFFLVSKLTVDKSRWQQGNVFSCSVMHEALHNHYTQKSLSLSP
light: DIQMTQSPSSLSASVGDRVTITCRASQDIHKYIAWYQQKPGQAPRLLIQYTSTLQPGVPSRFSGSGSGTDYTFTISSLQPEDIATYYCLQYEQLRTFGGGTKVEIKRTVAAPSVFIFPPSDEQLKSGTASVVCLLNNFYPREAKVQWKVDNALQSGNSQESVTEQDSKDSTYSLSSTLTLSKADYEKHKVYACEVTHQGLSSPVTKSFNRGEC
notes: Point variant made with H240-Kn061/H240-Hl071/L73-k0 as template; position by EU numbering; also called H240-Hl071 F241L
B2: H240-Kn061/H240-Hl071/L73-k0 variant with L235F introduced into H240-Hl071 (antibody, human IgG1, kappa)
heavy 1: B1 heavy 1
heavy 2: B1 heavy 2 with L234F, L240F
light: B1 light
notes: Point variant made with H240-Kn061/H240-Hl071/L73-k0 as template; position by EU numbering; also called H240-Hl071 L235F
B3: H240-Kn061/H240-Hl071/L73-k0 variant with V240A introduced into H240-Hl071 (antibody, human IgG1, kappa)
heavy 1: B1 heavy 1
heavy 2: B1 heavy 2 with V239A, L240F
light: B1 light
notes: Point variant made with H240-Kn061/H240-Hl071/L73-k0 as template; position by EU numbering; also called H240-Hl071 V240A
B4: H240-Kn061/H240-Hl071/L73-k0 variant with F241M introduced into H240-Hl071 (antibody, human IgG1, kappa)
heavy 1: B1 heavy 1
heavy 2: B1 heavy 2 with L240M
light: B1 light
notes: Point variant made with H240-Kn061/H240-Hl071/L73-k0 as template; position by EU numbering; also called H240-Hl071 F241M
B5: GpH7-A5/GpH7-B3/GpL16-k0 (antibody, human IgG1, kappa)
heavy 1: not shown
heavy 2: not shown
light: DIVMTQSPLSLPVTPGEPASISCQASESLVHSNRNTYLHWYLQKPGQSPQLLIYKVSNRFSGVPDRFSGSGSGTDFTLKISRVEAEDVGVYYCSQNTHVPPTFGQGTKVEIERTVAAPSVFIFPPSDEQLKSGTASVVCLLNNFYPREAKVQWKVDNALQSGNSQESVTEQDSKDSTYSLSSTLTLSKADYEKHKVYACEVTHQGLSSPVTKSFNRGEC
notes: also called A5/B3; HeCon Ab
B6: GpH7-A5/GpH7-B78/GpL16-k0 (antibody, human IgG1, kappa)
heavy 1: not shown
heavy 2: QVQLVQSGAEVKKPGASVTVSCKASGYTFTDYEMHWIRQPPGEGLEWIGAIDPKTGDTAYSESFQDRVTLTADKSTSTAYMELSSLTSEDTAVYYCTRFYSYTYWGQGTLVTVSSASTKGPSVFPLAPSSKSTSGGTAALGCLVKDYFPEPVTVSWNSGALTSGVHTFPAVLQSSGLYSLSSVVTVPSSSLGTQTYICNVNHKPSNTKVDKKVEPKSCDKTHTCPPCPAPELLGGPDVFLFPPKPKDTLMISRTPEVTCVVVDVSHEDPEVKFNWYVDGVEVHNAKTKPREEQYNSTYRVVSVLTVLHQDWLNGKEYKCKVSNKALPLPEEKTISKAKGQPREPQVYTLPPSRDELTKNQVSLTCLVKGFYPSDIAVEWESNGQPENNYKTTPPVLDSDGSFFLYSKLTVDKSRWQQGNVFSCSVMHEALHNHYTQESLSLSP
light: B5 light
notes: S239D/A330L/I332E in one H chain only; also called A5/B78
B7: GpH7-A57/GpH7-B78/GpL16-k0 (antibody, human IgG1, kappa)
heavy 1: B6 heavy 2 with D354K, H433R, E437K
heavy 2: B6 heavy 2
light: B5 light
notes: S239D/A330L/I332E in both H chains (called homodimerized); also called A57/B78
B8: GpH7-TA7/GpH7-TA45/GpL16-k0 (antibody, human IgG1, kappa)
heavy 1: B6 heavy 2 with L232Y, G234W, D237S, S296A, L328A, E330I, D354K, H433R, E437K
heavy 2: B6 heavy 2 with L232Y, G234W, D237S, S296A, L328A, E330I
light: B5 light
notes: L234Y/G236W/S298A in both H chains (called homodimerized); also called TA7/TA45
B9: GpH7-TA7/GpH7-B3/GpL16-k0 (antibody, human IgG1, kappa)
heavy 1: B6 heavy 2 with L232Y, G234W, D237S, S296A, L328A, E330I, D354K, H433R, E437K
heavy 2: not shown
light: B5 light
notes: L234Y/G236W/S298A in one H chain only; also called TA7/B3
B10: GpH7-TA7/GpH7-B78/GpL16-k0 (antibody, human IgG1, kappa)
heavy 1: B6 heavy 2 with L232Y, G234W, D237S, S296A, L328A, E330I, D354K, H433R, E437K
heavy 2: B6 heavy 2
light: B5 light
notes: L234Y/G236W/S298A in one H chain, S239D/A330L/I332E in the other; also called TA7/B78

molecular target: T4, FcgRIIIa V extracellular domain with C-terminal His tag (human, UniProt P08637 17-208); assay: SPR (Biacore) KD ratio against the template H240-Kn061/H240-Hl071/L73-k0
T4 construct: extracellular domain; also called FcγRIIIa V; FcγRIIIa (V158); not shown: His tag attached to the C terminus
Method: (§1) The antibodies were assessed for the binding to each FcgR. […] The resultant value was defined as relative KD, and used as an assessment indicator.
(§2) Analysis of interaction between obj ective antibody and the FcγR was carried out using Biacore T100 (GE Healthcare), Biacore T200, Biacore A100, and Biacore 4000. HBS-EP+ (GE Healthcare) was used as the running buffer, and the measurement temperature was set to 25° C. Chips produced by immobilizing the antigen peptide by the amine coupling method to a Series S sensor Chip CM5 (GE Healthcare), chips produced by allowing preliminarily biotinylated antigen peptides to interact with and immobilize onto a Series S Sensor Chip SA (certified) (GE Healthcare), chips produced by immobilizing Protein L (ACTIGEN, BioVision) to Series S Sencor Chip CM5 (GE Healthcare), or chips produced by immobilizing Protein A/G (Thermo Scientific) to Series S Sencor Chip CM5 (GE Healthcare) were used. Antibodies of interest were captured onto these chips, and allowed to interact to each FcγR diluted with running buffer.

T4 sequence (P08637 17-208 F176V): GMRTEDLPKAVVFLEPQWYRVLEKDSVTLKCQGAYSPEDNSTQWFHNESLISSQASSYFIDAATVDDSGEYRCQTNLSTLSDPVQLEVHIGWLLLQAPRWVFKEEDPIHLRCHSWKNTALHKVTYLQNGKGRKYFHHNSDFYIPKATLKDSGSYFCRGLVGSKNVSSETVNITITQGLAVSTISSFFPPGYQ

| relative KD (KD of H240-Kn061/H240-Hl071/L73-k0 / KD of variant) | Binder |
| --- | --- |
| 1.3 | B1 |
| 1.6 | B2 |
| 1.7 | B3 |
| 1.3 | B4 |

molecular target: T1, FcgRIIb extracellular domain with …; assay: as above
Method: as §1, §2

| relative KD (KD of H240-Kn061/H240-Hl071/L73-k0 / KD of variant) | Binder |
| --- | --- |
| 0.8 | B1 |
| 1 | B2 |
| 1 | B3 |
| 0.9 | B4 |

molecular target: T5, FcgRIIIa F extracellular domain with C-terminal His tag (human, UniProt P08637 17-208); assay: as above
T5 construct: extracellular domain; also called FcγRIIIa F; FcγRIIIa (F158); not shown: His tag attached to the C terminus
Method: as §1, §2

T5 sequence (P08637 17-208): as the sequence (P08637 17-208 F176V) above, with V160F counted along it

| relative KD (KD of H240-Kn061/H240-Hl071/L73-k0 / KD of variant) | Binder |
| --- | --- |
| 1.3 | B1 |
| 1.9 | B2 |
| 1.3 | B3 |
| 1.3 | B4 |

molecular target: T2, FcgRIIa R extracellular domain with …; assay: as above
Method: as §1, §2

| relative KD (KD of H240-Kn061/H240-Hl071/L73-k0 / KD of variant) | Binder |
| --- | --- |
| 1.2 | B1 |
| 1.2 | B2 |
| 1 | B3 |
| 1.3 | B4 |

molecular target: T3, FcgRIIa H extracellular domain with …; assay: as above
Method: as §1, §2

| relative KD (KD of H240-Kn061/H240-Hl071/L73-k0 / KD of variant) | Binder |
| --- | --- |
| 1.2 | B1 |
| 1.1 | B2 |
| 1.2 | B3 |
| 1.1 | B4 |

molecular target: T1, FcgRIIb extracellular domain with …; assay: SPR (Biacore T100), antibody captured on antigen peptide chip, FcγR extracellular domain as analyte, kinetic analysis
Method: (§3) The prepared antibodies were assayed as to the KDs for FcγRIIIa and FcγRIIb according to the method described in Reference Example 2.
(§4) Analysis of interaction between objective antibody and the FcγR was carried out using Biacore T100 (GE Healthcare). HBS-EP+ (GE Healthcare) was used as the running buffer, and the measurement temperature was set to 25° C. Chips produced by immobilizing the antigen peptide by the amine coupling method to a Series S Sencor Chip CM5 (GE Healthcare), or alternatively, chips produced by allowing preliminarily biotinylated antigen peptides to interact with and immobilize onto a Series S Sensor Chip SA (certified) (GE Healthcare) were used. Antibodies of interest were captured onto an antigen peptide-immobilized chip, and allowed to interact to each FcγR diluted with running buffer. To regenerate and repeatedly use the chip, the antibodies captured on the chip were washed off by reacting 10 mM glycine-HCl, pH 1.5.
(§5) The FcγR-binding activity of each antibody was assessed primarily using as an indicator the FcγR-binding activity and dissociation constant for FcγR.

| Kd | Binder |
| --- | --- |
| 3100 nM | B5 |
| 430 nM | B6 |
| 610 nM | B7 |
| 18000 nM | B8 |
| 4500 nM | B9 |
| 1100 nM | B10 |

molecular target: T5, FcgRIIIa F extracellular domain with …; assay: as above
Method: as §3, §4, §5

| Kd | Binder |
| --- | --- |
| 1600 nM | B5 |
| 54 nM | B6 |
| 6.2 nM | B7 |
| 3300 nM | B8 |
| 320 nM | B9 |
| 4.7 nM | B10 |

molecular target: T5, FcgRIIIa F extracellular domain with …; assay: ratio of SPR (Biacore) KDs, FcγRIIb as reference
Method: as §3, §4, §5

| FcγRIIIa F/FcγRIIb ratio (KD for FcγRIIb / KD for FcγRIIIa F) | Binder |
| --- | --- |
| 1.9 | B5 |
| 7.9 | B6 |
| 100 | B7 |
| 5.3 | B8 |
| 14 | B9 |
| 244 | B10 |
